The target of this test is T1, C-terminal domain of XerD (XerDC), as part of the XerDC-FtsKγ fusion protein (E. coli, UniProt P0A8P8 111-298).
T1 construct: XerD tyrosine recombinase, E. coli, residues 111 to 298 (C-terminal, catalytic domain); also called XerD C-terminal domain; XerD portion of XerDC–γ; source: overproduced from pBad24, purified (Ni2+ resin, HiTrap heparin HP, HiTrap Q HP)
T1 sequence (looked up): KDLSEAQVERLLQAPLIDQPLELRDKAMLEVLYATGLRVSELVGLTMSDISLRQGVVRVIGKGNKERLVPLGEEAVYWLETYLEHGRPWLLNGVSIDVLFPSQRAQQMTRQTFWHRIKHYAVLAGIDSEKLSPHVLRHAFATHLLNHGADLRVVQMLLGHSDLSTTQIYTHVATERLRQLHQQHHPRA
Briefly: crystal structure; XerDC (XerD 111-298) and FtsKγ (FtsK 1261-1329) joined on one chain by a 16 amino acid linker; hanging drop, 100 mM Bicine (pH9), 10% (w/v) polyethylene glycol 8000; molecular replacement, 2.3 Å. The following applies: both partners purified.

B1: FtsKγ domain, as part of the XerDC-FtsKγ fusion protein (domain or fragment, E. coli, UniProt P46889 1261-1329, looked up)
chain: GAEELDPLFDQAVQFVTEKRKASISGVQRQFRIGYNRAARIIEQMEAQGIVSEQGHNGNREVLAPPPFD
notes: FtsK DNA translocase, E. coli, residues 1261 to 1329 (γ domain, very C-terminus); In the functional rows with m4 it is the γ portion of the full length XerD-FtsKγ fusion, from which the crystallised fusion was amplified; also called γ domain of FtsK; source: overproduced from pBad24, purified (Ni2+ resin, HiTrap heparin HP, HiTrap Q HP)
Regarding B1, the binding result is on record as “binds”.

Values taken from publication PMC5052618, “Activation of Xer-recombination at dif: structural basis of the FtsKγ–XerD interaction” (Scientific Reports, 2016).
